These results are taken from patent publication US20240239875A1 (CURIA IP, published 2024).

Where a chain is given by its changes, count along the chain named.

B1: 7-N20-A (antibody, V domains shown)
VH: QVQLVETGGGLVRPGNSLKLSCVTSGFTFSNYRMHWLRQPPGKRLEWIGIITDKSDNYGANYAESVKGRFAISRDDSKSSVYLEMKRLREEDTATYFCSRDGYDWYFDLWGTGTTVTVSS
VL: DIVMTQSHKFMSTSVGDRVRITCKASQDVGIVVAWYQQKPGQSPKLLIYWASTRHTGVPDRFTGSGSGTDFTLTISNVQSEDLADYFCQQYSSYPTFGGGTKLEIK
B2: 6-O12-A (antibody, V domains shown)
VH: QVQLQQPGTELVKPGASVKLSCKASGYTFTSYWMHWVKQRPGQGLEWIGNINPSNGGTNYNEKFRSKATLTVDKSSSTAYMQLSSLTSEDSAVYYCARLGWFLPLGSWGQGTTLTVSS
VL: QIVLTQSPAIMSASLGEVITLTCSASSSVSYMHWYQQKSGTSPKLLIYSTSNLASGVPSRFSGSGSGTFYSLTISSVEAEDAADYYCHQWSGYMYTFGGGTKLEIK
B3: 9-F6-A (antibody, V domains shown)
VH: EVQLQQSGPELVKPGASVKMSCKASGYTFTSYIMHWVKQKPGQGLEWIGYILPYNDGTKYNEKFKGKATLTSDKSSSTAYMELRSLTSEDSAVYYCARWGYSNFLDSWGQGTTLTVSS
VL: DIQMTQTTSSLSASLGDRVTISCRASQDINNYLNWYQQKPDGTVKLLIYYTSRLHSGVPSRFSGSGSGTDYSLTIRNLEQEDIATYFCQQGNTLPPTFGGGTKLEIK
B4: 7-D7-A (antibody, V domains shown)
VH: QVQLKESGPGLVAPSQSLSITCTVSGFSLTSYAISWVRQPPGKGLEWLGVIWPGGGTNYNSALKSRLSISKDNSKSQVFLKMNSLQTDDTAKYYCARTGYYFDYWGQGTTLTVSS
VL: QLILTQSPAIMSASPGEKVTMTCSASLSVNYMYWFQQKPGTSPKRWIHDTSKLASGVPARFSGSGSGTSYSLTISSMEAEDAATYYCQQWSSNPPMYTFGGGTKLEIK
B5: 8-A17-A (antibody, V domains shown)
VH: B4 VH with I51V, S70N, A91G, K92R, Y101H
VL: B4 VL with L2I, I3V, A25V, L27S, N30S, Y33H, F35Y, P39S, H48Y
B6: 2-G20-A (antibody, V domains shown)
VH: EVQLQQSGPELVKPGASVKMSCKASGYTFPSYVLHWVKQKPGQGLEWIGYIYPYNDGTNYNEKFKGKATLTSDKSSSTAYMELSSLTSEDSAVYYCARGDYGDSAWFPYWGQGTLVTVSA
VL: DIVLTQSPASLAVSLGQRATISCRASKSVSTSGYSYMHWYQQKPGQPPKLLIYLASNLKSGVPARFSGGGSGTDFTLNIHPVEEEDAATYYCQLSRELPWTFGGGTKLEIK
B7: 1-L10-A (antibody, V domains shown)
VH: EVKLEESGGGLVQPGGSMKLSCVASGFTFNNYWMNWVRQSPEKGLEWVAQMRLKSDNYATHYAESVKGRFTISRDDSKSSVYLQMNNLRAEDTGIYYCIEGYWTYWGQGTLVTVSA
VL: QIVLTQSPAIMSASLGERVTMTCTASSSVSSSYLHWYQQKPGSSPKLWIYSTSNLASGVPARFSGNGSGTSYSLTISSMEAEDAATYYCLQYHRSPPYTFGGGTKLEIK

The first experiment concerns the target T1, SARS-CoV-2 S2 domain (SARS-CoV-2, UniProt P0DTC2 686-1213). The experiment in a line: ELISA (FIG. 10 summary).
Take B1: the binding result is given as “no binding”.

The target in a further experiment is T1, SARS-CoV-2 S2 domain. The experiment in a line: ELISA (FIG. 2C grouping). (In general: ELISA stands for enzyme-linked immunosorbent assay.)
Take B2: the binding result is given as “no binding”.
Same read-out and setting: with B3 the entry was “no binding”; with B4, “no binding”.
Still for that read-out and setting: under B5 stands “no binding”; under B6, “no binding”; under B7, “no binding”.
